The RNAGym collection of RNA variant scans (doi:10.1021/acssynbio.7b00057)

B1: Pistol ribozyme (parent)
chain: GGGUCGUUGUUCCAUAAUCGCGUGGAUAUGGCACGCAAGUUUCUACCGGGCACCGUAAAUGUCCGACUGGAGCCGUUCGGGCGGCUAUAAACAGACCUCAGGCCCGAAGCGUGGCGGCACCUGCCGCCGGUGGUAAAAAAGAUCGGAAGAGCACACGUCU

Variants of: B1
Assay: aptazyme ON/OFF ratio, guanine; higher = stronger switching; co-transcriptional cleavage with and without guanine

Variant | aptazyme ON/OFF ratio
U8G C13A | 1.3
U8G C13U | 1.27
U8G C13G | 1.2
U8G G9A U10A | 1.24
U8C U11A C12U | 1.19
U8C U11A C12G | 1.25
U8C U11A C12A | 1.34
U8C U10G C12A | 1.12
U8C U10G C12G | 1.07
U8C U10G C12U | 1.36
U8C U11G C12A C13A | 1.16
U8C U11G C12A C13G | 1.16
U8C U11G C12A C13U | 1.16
U8C U11A C12A C13A | 1.32
U8C U11A C12A C13G | 1.11
U8C U11A C12A C13U | 1.28
U8C U10G U11C C12A C13U | 1.32
U8C U10G U11C C12A C13A | 1.24
U8C U10G U11C C12A C13G | 1.11
U8C U10G U11G C12U | 1.32
U8C U10G U11G C12G | 1.25
U8C U10G U11G C12A | 1.18
U8C U10G C12U C13G | 1.11
U8C U10G C12U C13A | 1.21

Variant | aptazyme ON/OFF ratio
U8C U10G C12U C13U | 1.2
U8G C12U C13G | 1.4
U8G C12U C13U | 1.18
U8G C12U C13A | 1.23
U8G G9A C12G | 1.16
U8G G9A C12A | 1.61
U8G G9A C12U | 1.39
U8C U11G C12G C13U | 1.11
U8C U11G C12G C13G | 1.19
U8C U11G C12G C13A | 1.13
U8C U11G | 1.26
U8C U11A | 1.15
U8C U11C | 1.18
U8G C12A | 1.69
U8G C12U | 1.64
U8G C12G | 1.52
U8G G9A C13A | 1.24
U8G G9A C13G | 1.07
U8G G9A C13U | 1.28
U8C U10G C12G C13G | 1.12
U8C U10G C12G C13U | 1.12
U8C U10G C12G C13A | 1.09
U8C U11G C12G | 1.23
U8C U11G C12A | 1.15

Variant | aptazyme ON/OFF ratio
U8C U11G C12U | 1.26
U8C U10C U11G C12G C13G | 1.15
U8C U10C U11G C12G C13A | 1.25
U8C U10C U11G C12G C13U | 1.08
U8C U10G | 1.76
U8C U10G U11G C13G | 1.2
U8C U10G U11G C13A | 1.25
U8C U10G U11G C13U | 1.22
U8C U10G C12A C13G | 1.11
U8C U10G C12A C13U | 1.11
U8C U10G C12A C13A | 1.11
U8G G9A U10A C12A | 1.32
U8G G9A U10A C12G | 1.18
U8G G9A U10A C12U | 1.27
U8G C12A C13U | 1.12
U8G C12A C13A | 1.25
U8G C12A C13G | 1.13
U8C U10G U11A C12A C13U | 1.2
U8C U10G U11A C12A C13G | 1.15
U8C U10G U11A C12A C13A | 1.18
U8C U11C C12G C13G | 1.36
U8C U11C C12G C13U | 1.36
U8C U11C C12G C13A | 1.37
U8G G9A C12G C13G | 1.29

Variant | aptazyme ON/OFF ratio
U8G G9A C12G C13U | 1.33
U8G G9A C12G C13A | 1.37
U8C U10C U11G C12U | 1.39
U8C U10G U11C C13G | 1.07
U8C U10G U11C C13A | 1.05
U8C U10G U11C C13U | 1.04
U8C U10G U11C C12U C13G | 1.19
U8C U10G U11C C12U C13U | 1.28
U8C U10G U11C C12U C13A | 1.26
U8C U11C C12A | 1.14
U8C U11C C12G | 1.34
U8C U11C C12U | 1.55
U8C U10G U11G C12U C13A | 1.11
U8C U10G U11G C12U C13U | 1.23
U8C U10G U11G C12U C13G | 1.12
U8G G9A U10A C12G C13U | 1.35
U8G G9A U10A C12G C13G | 1.3
U8G G9A U10A C12G C13A | 1.22
U8C U10G U11C C12G | 1.78
U8C U10G U11C C12A | 2.79
U8C U10G U11C C12U | 1.21
U8C U10G U11A C12G C13G | 1.15
U8C U10G U11A C12G C13A | 1.13
U8C U10G U11A C12G C13U | 1.18

Variant | aptazyme ON/OFF ratio
U8C U10G C13G | 1.15
U8C U10G C13U | 1.37
U8C U10G C13A | 1.27
U8C U10C U11G C13G | 1.14
U8C U10C U11G C13U | 1.28
U8C U10C U11G C13A | 1.26
U8C U10G U11A C12U C13A | 1.35
U8C U10G U11A C12U C13U | 1.25
U8C U10G U11A C12U C13G | 1.12
U8C U11A C12G C13G | 1.16
U8C U11A C12G C13A | 1.1
U8C U11A C12G C13U | 1.14
U8G | 3.01
U8C U11G C13A | 1.05
U8C U11G C13G | 1.06
U8C U11G C13U | 1.17
U8G C12G C13U | 1.55
U8G C12G C13A | 1.2
U8G C12G C13G | 1.15
U8G G9A C12U C13U | 1.25
U8G G9A C12U C13A | 1.25
U8G G9A C12U C13G | 1.28
U8G G9A U10A C12U C13G | 1.31
U8G G9A U10A C12U C13A | 1.15

Variant | aptazyme ON/OFF ratio
U8G G9A U10A C12U C13U | 1.29
U8C U10C U11G C12U C13U | 1.46
U8C U10C U11G C12U C13A | 1.26
U8C U10C U11G C12U C13G | 1.28
U8C U11C C13A | 1.21
U8C U11C C13U | 1.19
U8C U11C C13G | 1.11
U8C U10G U11A C12A | 1.32
U8C U10G U11A C12G | 1.23
U8C U10G U11A C12U | 1.08
U8C U11C C12A C13U | 1.73
U8C U11C C12A C13G | 1.4
U8C U11C C12A C13A | 1.24
U8C U10G U11C C12G C13A | 1.18
U8C U10G U11C C12G C13U | 1.32
U8C U10G U11C C12G C13G | 1.17
U8C U11A C12U C13U | 1.13
U8C U11A C12U C13A | 1.21
U8C U11A C12U C13G | 1.18
U8G G9A | 1.64
U8C U10G U11C | 1.1
U8C U10G U11G | 1.26
U8C U10G U11A | 1.07
U8C U10G U11A C13A | 1.26

Variant | aptazyme ON/OFF ratio
U8C U10G U11A C13G | 1.19
U8C U10G U11A C13U | 1.18
U8C U11G C12U C13A | 1.08
U8C U11G C12U C13G | 1.07
U8C U11G C12U C13U | 1.17
U8C U10G U11G C12G C13G | 1.13
U8C U10G U11G C12G C13U | 1.26
U8C U10G U11G C12G C13A | 1.16
U8C U11A C13G | 1.07
U8C U11A C13A | 1.13
U8C U11A C13U | 1.11
U8C U10G U11G C12A C13G | 1.09
U8C U10G U11G C12A C13A | 1.11
U8C U10G U11G C12A C13U | 1.22
U8G G9A C12A C13A | 1.25
U8G G9A C12A C13U | 1.39
U8G G9A C12A C13G | 1.27
U8G G9A U10A C12A C13A | 1.33
U8G G9A U10A C12A C13G | 1.18
U8G G9A U10A C12A C13U | 1.26
U8C U11C C12U C13G | 1.5
U8C U11C C12U C13A | 1.19
U8C U11C C12U C13U | 1.33
